Test results: the supplement of paper PMC10567573

B1: DYRK1B (parent)
chain: KKVLNHGYDDDNHDYIVRSGERWL
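Note: lentivirally expressed fusions sorted by FACS into six bins by GFP to DsRed ratio, PSI derived from sequencing read proportions per bin multiplied by bin number.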

Variants of: B1
Experiment: protein stability index of a GFP-peptide fusion (GPS, HEK-293T) (PSI 1-6); higher = more stable
Conditions: c terminus: a fixed tail appended
KKVLNHGYDDDNHDYMVRSGERWL [I16M] gave a protein stability index of 3.32.
Variant KKVLNHGYDDDNHDYIVRSGIRWL [E21I] has a protein stability index of 2.16.
With KKVLNHGYDDDNHDYIVRSGCRWL [E21C] the protein stability index was 2.19.
KKVLNHGYDDDNHDYIVRSGDRWL [E21D] showed a protein stability index of 2.86.
KKVLNHGYDDDNHDYIVRSGGRWL [E21G] showed a protein stability index of 2.57.
Work on KKVLNHGYDDDNHDYIVRSGFRWL [E21F] yielded a protein stability index of 2.16.
KKVLNHGYDDDNHDYIVRSGARWL [E21A] showed a protein stability index of 2.97.
KKVLNHGYDDDNHDYIVRSGHRWL [E21H] showed a protein stability index of 2.4.
KKVLNHGYDDMNHDYIVRSGERWL [D11M] showed a protein stability index of 2.59.
In the case of KKVLNHGYDDQNHDYIVRSGERWL [D11Q], the protein stability index is reported as 2.83.
KKVLNHGYDDYNHDYIVRSGERWL [D11Y] gave a protein stability index of 2.48.
KKVLNHGYDDTNHDYIVRSGERWL [D11T] showed a protein stability index of 2.75.
KKVLNHGYDDPNHDYIVRSGERWL [D11P] gave a protein stability index of 2.58.
KKVLNHGYDDWNHDYIVRSGERWL [D11W] showed a protein stability index of 2.02.
Variant KKVLNHGYDDNNHDYIVRSGERWL [D11N] has a protein stability index of 2.89.
KKVLNHGYDDVNHDYIVRSGERWL [D11V] showed a protein stability index of 2.54.
KKVLNHGYDDSNHDYIVRSGERWL [D11S] gave a protein stability index of 3.03.
KKVLNHGYDDRNHDYIVRSGERWL [D11R] gave a protein stability index of 2.37.
With KKVLNHGYDDDNHNYIVRSGERWL [D14N] the protein stability index was 3.12.
With KKVLNHGYDDDNHKYIVRSGERWL [D14K] the protein stability index was 3.
With KKVLNHGYDDDNHVYIVRSGERWL [D14V] the protein stability index was 2.13.
KKVLNHGYDDDNHLYIVRSGERWL [D14L] gave a protein stability index of 1.67.
In the case of KKVLNHGYDDDNHAYIVRSGERWL [D14A], the protein stability index is reported as 2.78.
Work on KKVLNHGYDDDNHIYIVRSGERWL [D14I] yielded a protein stability index of 2.37.
In the case of KKVLNHGYDDDNHGYIVRSGERWL [D14G], the protein stability index is reported as 2.71.
Work on KKVLNHGYDDDNHQYIVRSGERWL [D14Q] yielded a protein stability index of 2.35.
For KKVLNHGYDDDNHMYIVRSGERWL [D14M], the protein stability index was 2.58.
With KKVLNHGYDDDNHYYIVRSGERWL [D14Y] the protein stability index was 2.55.
With KKVLNHGYDDDNHCYIVRSGERWL [D14C] the protein stability index was 2.64.
In the case of KKVLNHGYDDDNHFYIVRSGERWL [D14F], the protein stability index is reported as 2.21.
Work on KKVLNHGYDDDNHWYIVRSGERWL [D14W] yielded a protein stability index of 1.85.
With KKVLNHGYDDDNHTYIVRSGERWL [D14T] the protein stability index was 2.79.
KKVLNHGYDDDNHPYIVRSGERWL [D14P] showed a protein stability index of 2.71.
KKVLNHGYDDDNHHYIVRSGERWL [D14H] showed a protein stability index of 3.03.
In the case of KKVLNHGYDDDNHSYIVRSGERWL [D14S], the protein stability index is reported as 2.82.
KKVLNHGYDDDNHEYIVRSGERWL [D14E] gave a protein stability index of 3.03.
Variant KKVLNHGYDDDNHRYIVRSGERWL [D14R] has a protein stability index of 2.86.
Work on KKVLNHGYDDDKHDYIVRSGERWL [N12K] yielded a protein stability index of 3.05.
Work on KKVLNHGYDDDCHDYIVRSGERWL [N12C] yielded a protein stability index of 2.67.
For KKVLNHGYDDDSHDYIVRSGERWL [N12S], the protein stability index was 3.01.
KKVLNHGYDDDAHDYIVRSGERWL [N12A] showed a protein stability index of 2.7.
In the case of KKVLNHGYDDDLHDYIVRSGERWL [N12L], the protein stability index is reported as 2.3.
KKVLNHGYDDDFHDYIVRSGERWL [N12F] showed a protein stability index of 2.35.
With KKVLNHGYDDDHHDYIVRSGERWL [N12H] the protein stability index was 2.65.
Variant KKVLNHGYDDDTHDYIVRSGERWL [N12T] has a protein stability index of 2.62.
KKVLNHGYDDDVHDYIVRSGERWL [N12V] gave a protein stability index of 2.64.
Variant KKVLNHGYDDDWHDYIVRSGERWL [N12W] has a protein stability index of 2.01.
Variant KKVLNHGYDDDQHDYIVRSGERWL [N12Q] has a protein stability index of 3.48.
Work on KKVLNHGYDDDGHDYIVRSGERWL [N12G] yielded a protein stability index of 2.81.
With KKVLNHGYDDDMHDYIVRSGERWL [N12M] the protein stability index was 2.29.
Work on KKVLNHGYDDDIHDYIVRSGERWL [N12I] yielded a protein stability index of 2.47.
Work on KKVLNHGYDDDPHDYIVRSGERWL [N12P] yielded a protein stability index of 2.78.
With KKVLNHGYDDDEHDYIVRSGERWL [N12E] the protein stability index was 3.36.
Variant KKVLNHGYDDDDHDYIVRSGERWL [N12D] has a protein stability index of 3.4.
Work on KKVLNHGYDDDYHDYIVRSGERWL [N12Y] yielded a protein stability index of 2.17.
In the case of KKVLNHGYDDDRHDYIVRSGERWL [N12R], the protein stability index is reported as 3.27.
In the case of KKVLNHGYDDDNHDDIVRSGERWL [Y15D], the protein stability index is reported as 4.19.
With KKVLNHGYDDDNHDCIVRSGERWL [Y15C] the protein stability index was 3.58.
With KKVLNHGYDDDNHDQIVRSGERWL [Y15Q] the protein stability index was 4.05.
For KKVLNHGYDDDNHDEIVRSGERWL [Y15E], the protein stability index was 4.02.
Variant KKVLNHGYDDDNHDPIVRSGERWL [Y15P] has a protein stability index of 3.6.
In the case of KKVLNHGYDDDNHDSIVRSGERWL [Y15S], the protein stability index is reported as 3.32.
Work on KKVLNHGYDDDNHDFIVRSGERWL [Y15F] yielded a protein stability index of 3.09.
With KKVLNHGYDDDNHDIIVRSGERWL [Y15I] the protein stability index was 3.5.
KKVLNHGYDDDNHDKIVRSGERWL [Y15K] gave a protein stability index of 3.56.
Work on KKVLNHGYDDDNHDVIVRSGERWL [Y15V] yielded a protein stability index of 3.38.
KKVLNHGYDDDNHDMIVRSGERWL [Y15M] gave a protein stability index of 3.27.
With KKVLNHGYDDDNHDGIVRSGERWL [Y15G] the protein stability index was 3.82.
In the case of KKVLNHGYDDDNHDAIVRSGERWL [Y15A], the protein stability index is reported as 3.79.
KKVLNHGYDDDNHDWIVRSGERWL [Y15W] showed a protein stability index of 3.07.
With KKVLNHGYDDDNHDNIVRSGERWL [Y15N] the protein stability index was 3.88.
KKVLNHGYDDDNHDLIVRSGERWL [Y15L] showed a protein stability index of 3.05.
Variant KKVLNHGYDDDNHDRIVRSGERWL [Y15R] has a protein stability index of 3.72.
Work on KKVLNHGYDDDNHDTIVRSGERWL [Y15T] yielded a protein stability index of 2.95.
KKVLNHGYDDDNHDHIVRSGERWL [Y15H] gave a protein stability index of 3.42.
KKVLNHGYDDDNHDYIVRDGERWL [S19D] gave a protein stability index of 3.64.
Work on KKVLNHGYDDDNHDYIVRWGERWL [S19W] yielded a protein stability index of 2.21.
Variant KKVLNHGYDDDNHDYIVRNGERWL [S19N] has a protein stability index of 3.22.
For KKVLNHGYDDDNHDYIVRPGERWL [S19P], the protein stability index was 2.51.
For KKVLNHGYDDDNHDYIVRMGERWL [S19M], the protein stability index was 2.6.
KKVLNHGYDDDNHDYIVRQGERWL [S19Q] showed a protein stability index of 3.46.
With KKVLNHGYDDDNHDYIVRRGERWL [S19R] the protein stability index was 2.78.
In the case of KKVLNHGYDDDNHDYIVREGERWL [S19E], the protein stability index is reported as 3.25.
KKVLNHGYDDDNHDYIVRVGERWL [S19V] showed a protein stability index of 2.98.
For KKVLNHGYDDDNHDYIVRFGERWL [S19F], the protein stability index was 2.29.
With KKVLNHGYDDDNHDYIVRIGERWL [S19I] the protein stability index was 2.07.
Work on KKVLNHGYDDDNHDYIVRTGERWL [S19T] yielded a protein stability index of 3.06.
Variant KKVLNHGYDDDNHDYIVRKGERWL [S19K] has a protein stability index of 3.2.
Variant KKVLNHGYDDDNHDYIVRHGERWL [S19H] has a protein stability index of 3.91.
Work on KKVLNHGYDDDNHDYIVRLGERWL [S19L] yielded a protein stability index of 2.42.
Work on KKVLNHGYDDDNHDYIVRYGERWL [S19Y] yielded a protein stability index of 2.53.
Variant KKVLNHGYDDDNHDYIVRGGERWL [S19G] has a protein stability index of 3.25.
Work on KKVLNHGYDDDNHDYIVRCGERWL [S19C] yielded a protein stability index of 2.59.
In the case of KKVLNHGYDDDNHDYIVRAGERWL [S19A], the protein stability index is reported as 3.57.
